What all share (experiment): cytokine release
The target of assay [1] is T1, TPTE peptide on HLA-DRB1*14:01 (human).
T1 peptide: KHFIIYSIPRYVRDLKIQI

The target in assay [2] is T2, TPTE peptide on HLA-DRB3*03:01 (human).
T2 peptide: IKLLRNIPRWTHLLR

Assay [3] addresses T3, TPTE peptide on HLA-DRB1*15:01 (human).
T3 peptide: YVAYFAQVKHLYNWNLPPR

Assay [4] has as its target T4, TPTE peptide on HLA-DRB5*02:02 (human).
T4 peptide: IFFDIKLLRNIPRWTHLLR

The target of assay [5] is T5, TPTE peptide on HLA-DRB1*14:01 (human).
T5 peptide: SPISESVLARLSKFEVEDA

Assay [6] deals with NY-ESO-1 peptide on HLA-DRB1*04:01 (human).
Assay [7] has as its target T6, TPTE peptide on HLA-DRB1*14:01 (human).
T6 peptide: WLHTSFIENNRLYLPKNEL

Assay [8] addresses T7, NY-ESO-1 peptide on HLA-DRB5*02:02 (human).
T7 peptide: SGNILTIRLTAADHRQLQL

Assay [9] has as its target T8, TPTE peptide on HLA-DRB1*07:01 (human).
T8 peptide: ILADLIFTDSKLYIPLEYR

The target in assay [10] is T9, TPTE peptide on HLA-DRB1*13:01 (human).
T9 peptide: RFLDKKHRNHYRVYN

Assay [11] deals with T10, TPTE peptide on HLA-DRB4*01:01 (human).
T10 peptide: NWNLPPRRILFIKHFIIYS

The target in assay [12] is NY-ESO-1 peptide on HLA-DRB1*11:01 (human).
In assay [13] the target is NY-ESO-1 peptide on HLA-DRB1*16:01 (human).
The target of assay [14] is T11, hCMV pp65 peptide on HLA-DRB1*07:01 (human).
T11 peptide: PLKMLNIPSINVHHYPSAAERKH

Assay [15] has as its target T12, NY-ESO-1 peptide on HLA-DRB1*04:01 (human).
T12 peptide: CFLPVFLAQPPSGQRR

Assay [16] concerns the target T13, TPTE peptide on HLA-DRB5*02:02 (human).
T13 peptide: KLIRRRVSENKRRYT

Assay [17] addresses T14, TPTE peptide on HLA-DRB1*16:01 (human).
T14 peptide: NHYRVYNLCSERAYD

In assay [18] the target is T15, TPTE peptide on HLA-DRB1*15:01 (human).
T15 peptide: ILFIKHFIIYSIPRY

For assay [19], the target named is T16, TPTE peptide on HLA-B*35:01 (human).
T16 peptide: YPSDFAVEI

B1: TCRCD4-TPT#5 (TCR, V domains shown)
Valpha: AQTVTQSQPEMSVQEAETVTLSCTYDTSESDYYLFWYKQPPSRQMILVIRQEAYKQQNATENRFSVNFQKAAKSFSLKISDSQLGDAAMYFCAYSRTSGTYKYIFGTGTRLKVLA
Vbeta: ETGVTQTPRHLVMGMTNKKSLKCEQHLGHNAMYWYKQSAKKPLELMFVYNFKEQTENNSVPSRFSPECPNSSHLFLHLHTLQPEDSALYLCASSQEISGSSYEQYFGPGTRLTVT
As for B1, the binding result in [1] is “recognises”.

B2: TCRCD4-TPT#27 (TCR, V domains shown)
Valpha: GENVEQHPSTLSVQEGDSAVIKCTYSDSASNYFPWYKQELGKRPQLIIDIRSNVGEKKDQRIAVTLNKTAKHFSLHITETQPEDSAVYFCAALYSGGGADGLTFGKGTHLIIQP
Vbeta: DGGITQSPKYLFRKEGQNVTLSCEQNLNHDAMYWYRQDPGQGLRLIYYSQIVNDFQKGDIAEGYSVSREKKESFPLTVTSAQKNPTAFYLCASSIGGGVNTEAFFGQGTRLTVV
In the case of B2, the binding result in assay [2] is recorded as “recognises”.

B3: TCRCD4-TPT#49 (TCR, V domains shown)
Valpha: AQTVTQSQPEMSVQEAETVTLSCTYDTSENNYYLFWYKQPPSRQMILVIRQEAYKQQNATENRFSVNFQKAAKSFSLKISDSQLGDTAMYFCAFMKNTGNQFYFGTGTSLTVIP
Vbeta: DGGITQSPKYLFRKEGQNVTLSCEQNLNHDAMYWYRQDPGQGLRLIYYSQIVNDFQKGDIAEGYSVSREKKESFPLTVTSAQKNPTAFYLCASRRLDGLGIGELFFGEGSRLTVL
Take B3: the binding result in assay [3] is “recognises”.

B4: TCRCD4-TPT#17 (TCR, V domains shown)
Valpha: DQQVKQNSPSLSVQEGRISILNCDYTNSMFDYFLWYKKYPAEGPTFLISISSIKDKNEDGRFTVFLNKSAKHLSLHIVPSQPGDSAVYFCAASPNTGNQFYFGTGTSLTVIP
Vbeta: GAGVSQSPSNKVTEKGKDVELRCDPISGHTALYWYRQSLGQGLEFLIYFQGNSAPDKSGLPSDRFSAERTGGSVSTLTIQRTQQEDSAVYLCASSLTGGPYEQYFGPGTRLTVT
Consider B4, for which the binding result in assay [4] is “recognises”.

B5: TCRCD4-TPT#6 (TCR, V domains shown)
Valpha: QKEVEQDPGPLSVPEGAIVSLNCTYSNSAFQYFMWYRQYSRKGPELLMYTYSSGNKEDGRFTAQVDKSSKYISLFIRDSQPSDSATYLCAMSAVSFGNVLHCGSGTQVIVLP
Vbeta: ETGVTQSPTHLIKTRGQQVTLRCSSQSGHNTVSWYQQALGQGPQFIFQYYREEENGRGNFPPRFSGLQFPNYSSELNVNALELDDSALYLCASSFGENTIYFGEGSWLTVV
On to B5, for which the binding result in assay [5] is “recognises”.

B6: TCRCD4-NY#3 (TCR, V domains shown)
Valpha: QKEVEQDPGPLSVPEGAIVSLNCTYSNSAFQYFMWYRQYSRKGPELLMYTYSSGNKEDGRFTAQVDKSSKYISLFIRDSQPSDSATYLCAMSKGAQKLVFGQGTRLTINP
Vbeta: EAGVAQSPRYKIIEKRQSVAFWCNPISGHATLYWYQQILGQGPKLLIQFQNNGVVDDSQLPKDRFSAERLKGVDSTLKIQPAKLEDSAVYLCASSLGDSNTGELFFGEGSRLTVL
Consider B6, for which the binding result in [6] was “recognises”.

B7: TCRCD4-TPT#13 (TCR, V domains shown)
Valpha: EDQVTQSPEALRLQEGESSSLNCSYTVSGLRGLFWYRQHPGKGPEFLFTLYSAGEEKEKERLKATLTKKESFLHITAPKPEDSATYLCAVQASNSGNTPLVFGKGTRLSVIA
Vbeta: DGGITQSPKYLFRKEGQNVTLSCEQNLNHDAMYWYRQDPGQGLRLIYYSQIVNDFQKGDIAEGYSVSREKKESFPLTVTSAQKNPTAFYLCASSAPHQRGTNEQFFGPGTRLTVL
Turning to B7, the binding result in [7] is on record as “recognises”.

B8: TCRCD4-NY#13 (TCR, V domains shown)
Valpha: KQEVTQIPAALSVPEGENLVLNCSFTDSAIYNLQWFRQDPGKGLTSLLLIQSSQREQTSGRLNASLDKSSGRSTLYIAASQPGDSATYLCAVPTDSWGKLQFGAGTQVVVTP
Vbeta: DTGVSQDPRHKITKRGQNVTFRCDPISEHNRLYWYRQTLGQGPEFLTYFQNEAQLEKSRLLSDRFSAERPKGSFSTLEIQRTEQGDSAMYLCASSSKLTGIPEGTDTQYFGPGTRLTVL
Turning to B8, the binding result in assay [8] was “recognises”.

B9: TCRCD4-TPT#11 (TCR, V domains shown)
Valpha: SQQGEEDPQALSIQEGENATMNCSYKTSINNLQWYRQNSGRGLVHLILIRSNEREKHSGRLRVTLDTSKKSSSLLITASRAADTASYFCAGYNTNAGKSTFGDGTTLTVKP
Vbeta: NAGVTQTPKFRILKIGQSMTLQCAQDMNHNYMYWYRQDPGMGLKLIYYSVGAGITDKGEVPNGYNVSRSTTEDFPLRLELAAPSQTSVYFCASSFGQVWADTQYFGPGTRLTVL
In the case of B9, the binding result in [9] was “recognises”.

B10: TCRCD4-TPT#42 (TCR, V domains shown)
Valpha: GQQVMQIPQYQHVQEGEDFTTYCNSSTTLSNIQWYKQRPGGHPVFLIQLVKSGEVKKQKRLTFQFGEAKKNSSLHITATQTTDVGTYFCAGSTGGGNKLTFGTGTQLKVEL
Vbeta: GAGVSQSPRYKVAKRGQDVALRCDPISGHVSLFWYQQALGQGPEFLTYFQNEAQLDKSGLPSDRFFAERPEGSVSTLKIQRTQQEDSAVYLCASSDFYEQYFGPGTRLTVT
For the molecule B10, the binding result in assay [10] is “recognises”.

B11: TCRCD4-TPT#4 (TCR, V domains shown)
Valpha: AQKITQTQPGMFVQEKEAVTLDCTYDTSDPSYGLFWYKQPSSGEMIFLIYQGSYDQQNATEGRYSLNFQKARKSANLVISASQLGDSAMYFCATASNFGNEKLTFGTGTRLTIIP
Vbeta: SAVISQKPSRDICQRGTSLTIQCQVDSQVTMMFWYRQQPGQSLTLIATANQGSEATYESGFVIDKFPISRPNLTFSTLTVSNMSPEDSSIYLCSVDRDREDGYTFGSGTRLTVV
In the case of B11, in [11], the binding result is on record as “recognises”.

B12: TCRCD4-NY#7 (TCR, V domains shown)
Valpha: AQSVTQLDSQVPVFEEAPVELRCNYSSSVSVYLFWYVQYPNQGLQLLLKYLSGSTLVKGINGFEAEFNKSQTSFHLRKPSVHISDTAEYFCAVSKSGGYQKVTFGTGTKLQVIP
Vbeta: GAVVSQHPSWVICKSGTSVKIECRSLDFQATTMFWYRQFPKQSLMLMATSNEGSKATYEQGVEKDKFLINHASLTLSTLTVTSAHPEDSSFYICSAAPGLAGGQGGSQYFGPGTRLLVL
As to B12, the binding result in assay [12] and in assay [13] was “recognises” in each case.

B13: TCRCD4-CMV#1 (TCR, V domains shown)
Valpha: KQEVTQIPAALSVPEGENLVLNCSFTDSAIYNLQWFRQDPGKGLTSLLLIQSSQREQTSGRLNASLDKSSGRSTLYIAASQPGDSATYLCAVKDNDMRFGAGTRLTVKP
Vbeta: DTAVSQTPKYLVTQMGNDKSIKCEQNLGHDTMYWYKQDSKKFLKIMFSYNNKELIINETVPNRFSPKSPDKAHLNLHINSLELGDSAVYFCASSQEKRGAFFGQGTRLTVV
Turning to B13, the binding result in assay [14] is on record as “recognises”.

B14: TCRCD4-NY#1 (TCR, V domains shown)
Valpha: GIQVEQSPPDLILQEGANSTLRCNFSDSVNNLQWFHQNPWGQLINLFYIPSGTKQNGRLSATTVATERYSLLYISSSQTTDSGVYFCAVNDYKLSFGAGTTVTVRA
Vbeta: DSGVTQTPKHLITATGQRVTLRCSPRSGDLSVYWYQQSLDQGLQFLIQYYNGEERAKGNILERFSAQQFPDLHSELNLSSLELGDSALYFCASSPGVSGTTEAFFGQGTRLTVV
Consider B14, for which the binding result in [15] is recorded as “recognises”.

B15: TCRCD4-TPT#33 (TCR, V domains shown)
Valpha: DQQVKQNSPSLSVQEGRISILNCDYTNSMFDYFLWYKKYPAEGPTFLISISSIKDKNEDGRFTVFLNKSAKHLSLHIVPSQPGDSAVYFCAARSYGGSQGNLIFGKGTKLSVKP
Vbeta: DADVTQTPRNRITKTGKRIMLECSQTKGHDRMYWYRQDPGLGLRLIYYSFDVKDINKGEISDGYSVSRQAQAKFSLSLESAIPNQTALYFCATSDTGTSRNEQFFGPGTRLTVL
Turning to B15, in [16], the binding result was “recognises”.

B16: TCRCD4-TPT#38 (TCR, V domains shown)
Valpha: ELKVEQNPLFLSMQEGKNYTIYCNYSTTSDRLYWYRQDPGKSLESLFVLLSNGAVKQEGRLMASLDTKARLSTLHITAAVHDLSATYFCAVGFRGSTLGRLYFGRGTQLTVWP
Vbeta: DAGVTQSPTHLIKTRGQHVTLRCSPISGHKSVSWYQQVLGQGPQFIFQYYEKEERGRGNFPDRFSARQFPNYSSELNVNALLLGDSALYLCASSWGQGNEKLFFGSGTQLSVL
For B16, the binding result in assay [17] is “recognises”.

B17: TCRCD4-TPT#45 (TCR, V domains shown)
Valpha: GESVGLHLPTLSVQEGDNSIINCAYSNSASDYFIWYKQESGKGPQFIIDIRSNMDKRQGQRVTVLLNKTVKHLSLQIAATQPGDSAVYFCAETRQGGKLIFGQGTELSVKP
Vbeta: GAVVSQHPSWVICKSGTSVKIECRSLDFQATTMFWYRQFPKQSLMLMATSNEGSKATYEQGVEKDKFLINHASLTLSTLTVTSAHPEDSSFYICSAPPGVTVRAYGYTFGSGTRLTVV
Turning to B17, in assay [18], the binding result is given as “recognises”.

B18: TCRCD8-TPT#3 (TCR, V domains shown)
Valpha: TQLLEQSPQFLSIQEGENLTVYCNSSSVFSSLQWYRQEPGEGPVLLVTVVTGGEVKKLKRLTFQFGDARKDSSLHITAAQPGDTGLYLCAGAQGQKLLFARGTMLKVDL
Vbeta: DTGVSQNPRHKITKRGQNVTFRCDPISEHNRLYWYRQTLGQGPEFLTYFQNEAQLEKSRLLSDRFSAERPKGSFSTLEIQRTEQGDSAMYLCASSHLAGGNTGELFFGEGSRLTVL
As for B18, in [19], the binding result is “recognises”.

(Values after patent US20190060430A1 (published 2019).)
